Experimental data published in publication PMC12148588 (2025).
Positions count from the first letter of the chain named. Like-named read-outs stand apart in the source and are kept apart here.

B1: MB025_A09L (antibody, V domains shown)
VH: EVQLVESGGGLVQPGGSLRLSCAASGFSVSIFYMNWVRQAPGKGLEWVSSVYSGETTYYADSVRGRFTISRDNSKSTLYLQMNSLRPEDTAVYYCARGVDYRTNRTEGGAFDIWGQGTMVTVSS
VL: QSALTQPASVSGSPGQSIPISCTGTSSDFGNYNLISWYQQHPGKAPKLMIYEGTKRPSGVSDRFSGSKSANTASLTISGLQAEDEADYYCCSYAGSSTWMFGGGTKLTVL
B2: MB043_CL39 (antibody, V domains shown)
VH: EVQLVETGGGLIHPGGSLRLSCAASEFIVSYNYMSWVRQAPGKGLEWVSVIYSGGSTFYADAVKGRFTISRDSSKNTLDLLMNSLRVEDTAVYYCARVLPSNTDYFDYWGQGILVTVSS
VL: QSVLTQPPSVSGATGQRVTISCTGSNSNIGAGSDVHWYQQLPGAAPKLLIYVNNNRPSGVPDRFSGSKSGTSASLAITGLQAEDEADYYCQSYDSSLSGYVFGTGTKVTVL
B3: MB027_D06L (antibody, V domains shown)
VH: B2 VH with H13Q, E26G, Y31S, V50I, S73N, L81Q, V87A, S101T, N102S
VL: B2 VL with T14P, Q40H, A44T, K47T, V52S, N54S, G99T
B4: MB025_A07K (antibody, V domains shown)
VH: EVQLVESGGDLVQPGGSLRLSCAASEFIVSSNYMSWVRQTPGKGLEWISVLYSGGSTFYADSVKGRFTISRDNSKNTLYLQMNSLRVEDTAVYYCARDFGEFWFDYWGQGTLVTVSS
VL: EIVLTQSPGTLSLSPGERATLSCRASQTINSYLAWYQQKPGQAPRLLIYGASSRATGIPDRFSGSGSGTDFTLTISRLEPEDFAVYYCQQYGNSPRTFGQGTKVEIK

What was measured:
[1] = biological target: T1, SARS-CoV-2 RBD of the Wuhan strain (Acro Biosystems SPD-C82E9-25) (SARS-CoV-2, UniProt P0DTC2); test: SPR
[2] = biological target: T1, SARS-CoV-2 RBD of the Wuhan strain …; test: SPR; remark: listed apart in the source

| Binder | Kd [1] [nM] | Kd [2] [nM] |
| --- | --- | --- |
| B1 | 0.00491 |  |
| B2 |  | 0.0273 |
| B3 |  | 7.17 |
| B4 | 0.159 |  |
